According to PMC9600955:

Target: LapD2 purified in isolation (Streptococcus intermedius GC1825)
Experiment: crystal structure; LapD2 at 10 mg/mL, hanging drop, 0.2 M lithium sulfate, 0.1 M Tris-HCl pH 8.0, 30% PEG 4000; SAD phasing, native data to 2.20 Å

LapD2 purified in isolation (natural protein)
stoichiometry N: 2
